Data as given in IntAct's records for PubMed 9024666.

B1: Apoptosis regulator ced-9 (Caenorhabditis elegans), P41958 (parent)
chain: MTRCTADNSLTNPAYRRRTMATGEMKEFLGIKGTEPTDFGINSDAQDLPSPSRQASTRRMSIGESIDGKINDWEEPRLDIEGFVVDYFTHRIRQNGMEWFGAPGLPCGVQPEHEMMRVMGTIFEKKHAENFETFCEQLLAVPRISFSLYQDVVRTVGNAQTDQCPMSYGRLIGLISFGGFVAAKMMESVELQGQVRNLFVYTSLFIKTRIRNNWKEHNRSWDDFMTLGKQMKEDYERAEAEKVGRRKQNRRWSMIGAGVTAGAIGIVGVVVCGRMMFSLK
partner: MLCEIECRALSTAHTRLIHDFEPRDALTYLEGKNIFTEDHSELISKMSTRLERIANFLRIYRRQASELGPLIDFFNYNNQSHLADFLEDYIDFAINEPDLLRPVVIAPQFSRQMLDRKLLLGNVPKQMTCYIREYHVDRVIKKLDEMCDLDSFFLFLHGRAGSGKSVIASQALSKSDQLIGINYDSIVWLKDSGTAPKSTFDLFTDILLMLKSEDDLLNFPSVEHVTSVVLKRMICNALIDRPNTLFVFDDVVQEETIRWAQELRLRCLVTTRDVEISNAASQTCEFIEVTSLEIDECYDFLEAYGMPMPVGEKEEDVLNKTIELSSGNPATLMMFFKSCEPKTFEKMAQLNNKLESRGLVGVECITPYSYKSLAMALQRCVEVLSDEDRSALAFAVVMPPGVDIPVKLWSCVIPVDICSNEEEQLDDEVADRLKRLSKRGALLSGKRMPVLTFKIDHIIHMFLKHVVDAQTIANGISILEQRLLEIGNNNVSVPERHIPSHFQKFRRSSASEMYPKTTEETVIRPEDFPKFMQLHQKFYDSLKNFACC

Variants of: B1
Details: with ced4_caeel ced-4, P30429

effect of a mutation on the interaction | Variant
decreasing interaction | Y149N
